How the values were obtained:
Assay in all cases: cell-based or functional assay
[1] = molecular target: HIV-1 envelope glycoprotein (Env) of isolate MGRM-A-009, clade A (HIV-1)
[2] = molecular target: HIV-1 Env of pseudovirus MGRM-G-016 (HIV-1, clade G isolate MGRM-G-016)
[3] = molecular target: HIV-1 Env of isolate 92RW021 (clade A pseudovirus) (HIV-1)
[4] = molecular target: HIV-1 Env of isolate MGRM-D-003 (clade D pseudovirus) (HIV-1)
[5] = molecular target: HIV-1 Env of isolate MGRM-D-019 (clade D pseudovirus) (HIV-1)
[6] = molecular target: HIV-1 envelope glycoprotein (Env) of isolate 92RW020, clade A (HIV-1)
[7] = molecular target: HIV-1 CMU02 envelope glycoprotein (Env) on pseudovirus (HIV-1)
[8] = molecular target: HIV-1 Env of pseudovirus MGRM-G-004 (clade G) (HIV-1)
[9] = molecular target: HIV-1 Env of isolate MGRM-D-001 (clade D pseudovirus) (HIV-1)
[10] = molecular target: HIV-1 Env of isolate VLGCB3, clade B, on pseudovirus (HIV-1)
[11] = molecular target: HIV-1 Env of isolate TRJ0.58 (Acute), clade B, on pseudovirus (HIV-1)
[12] = molecular target: HIV-1 Env of isolate MGRM-D-012 (clade D pseudovirus) (HIV-1)
[13] = molecular target: HIV-1 Env of pseudovirus MGRM-AE-005 (clade CRF01_AE) (HIV-1)
[14] = molecular target: HIV-1 94UG103 envelope glycoprotein (Env) on pseudovirus (HIV-1)
[15] = molecular target: HIV-1 Env of isolate 92UG046 (clade D pseudovirus) (HIV-1)
[16] = molecular target: HIV-1 Env of pseudovirus MGRM-G-014 (HIV-1, clade G isolate MGRM-G-014)
[17] = molecular target: HIV-1 envelope glycoprotein (Env) of isolate MGRM-C-006 (HIV-1)
[18] = molecular target: HIV-1 Env of isolate JRCSF (subtype B) (HIV-1) (UniProt P20871)
[19] = molecular target: HIV-1 Env of isolate MG RM-D-019 (HIV-1)
[20] = molecular target: HIV-1 MGRM-A-010 Env (pseudovirus, clade A) (HIV-1)
[21] = molecular target: HIV-1 Env of isolate JRFL (subtype B) (HIV-1)
[22] = molecular target: HIV-1 MGRM-C-027 Env (pseudovirus, clade C) (HIV-1)
[23] = molecular target: HIV-1 Env of isolate 92WR021 (HIV-1)
[24] = molecular target: HIV-1 Env of isolate 92UG024 (clade D), on pseudovirus (HIV-1)
[25] = molecular target: HIV-1 Env of isolate 92UG046 (HIV-1)
[26] = molecular target: HIV-1 Env of isolate MGRM-AG-002 (subtype AG) (HIV-1)
[27] = molecular target: HIV-1 Env of isolate MGRM-A-007 (subtype A) (HIV-1)
[28] = molecular target: HIV-1 Env of isolate MGRM-A-001 (HIV-1)
[29] = molecular target: HIV-1 Env of isolate 92UG001 (HIV-1)
[30] = molecular target: HIV-1 Env of isolate MG RM-D-011 (HIV-1)
[31] = molecular target: HIV-1 Env of isolate CMU02 (clade AE), on pseudovirus (HIV-1)
[32] = molecular target: HIV-1 Env of isolate MGRM-A-002 (HIV-1)
[33] = molecular target: HIV-1 Env of isolate 92UG037 (HIV-1)
[34] = molecular target: HIV-1 envelope glycoprotein (Env) of isolate MGRM-C-022 (HIV-1)
[35] = molecular target: HIV-1 Env of isolate SF162 (subtype B) (HIV-1) (UniProt P19550)
[36] = molecular target: HIV-1 Env of isolate MGRM-C-004 (subtype C) (HIV-1)
[37] = molecular target: HIV-1 Env of isolate MGRM-A-013 (subtype A) (HIV-1)
[38] = molecular target: HIV-1 Env of isolate MGRM-C-026 (pseudovirus) (HIV-1)
[39] = molecular target: HIV-1 Env of isolate 93MW959 (subtype C) (HIV-1)
[40] = molecular target: HIV-1 Env of isolate 93WR029 (HIV-1)

Chain of 1443_C16 (PG16) (TCN-116) (antibody) (VH): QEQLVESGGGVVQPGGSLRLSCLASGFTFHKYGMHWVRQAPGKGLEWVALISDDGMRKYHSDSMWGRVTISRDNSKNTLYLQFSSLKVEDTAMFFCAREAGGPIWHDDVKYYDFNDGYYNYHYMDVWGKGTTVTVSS
Chain of 1443_C16 (PG16) (TCN-116) (antibody) (VL): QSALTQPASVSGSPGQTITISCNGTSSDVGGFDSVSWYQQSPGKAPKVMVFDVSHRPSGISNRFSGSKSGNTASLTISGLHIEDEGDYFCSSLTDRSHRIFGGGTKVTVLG
Chain of 5329_C19 (PGT-136) (antibody) (VH): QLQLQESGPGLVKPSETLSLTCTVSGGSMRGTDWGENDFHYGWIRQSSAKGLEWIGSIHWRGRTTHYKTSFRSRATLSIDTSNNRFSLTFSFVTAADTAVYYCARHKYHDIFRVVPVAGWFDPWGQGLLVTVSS
Chain of 5329_C19 (PGT-136) (antibody) (VL): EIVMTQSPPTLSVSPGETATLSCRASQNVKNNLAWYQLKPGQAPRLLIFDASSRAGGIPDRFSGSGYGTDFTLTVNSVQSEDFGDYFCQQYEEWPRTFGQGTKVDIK

## 2F5 (antibody)
[1]
  IC50 (µg/ml), pseudovirus neutralization: 9.4 µg/mL
[2]
  IC50 (µg/ml), pseudovirus neutralization: 16.8 µg/mL
[3]
  IC50 (µg/ml), pseudovirus neutralization: 4.16 µg/mL
[4]
  IC50 (µg/ml), pseudovirus neutralization: > 50 µg/mL
[5]
  IC50 (µg/ml), pseudovirus neutralization: 0.14 µg/mL
[6]
  IC50 (µg/ml), pseudovirus neutralization: 3.36 µg/mL
[7]
  IC50, pseudovirus neutralization: 0.38 µg/mL
[8]
  IC50: > 50 µg/mL
[9]
  IC50 (µg/ml), pseudovirus neutralization: 0.63 µg/mL
[10]
  IC50 (µg/ml), pseudovirus neutralization: > 50 µg/mL
[11]
  IC50 (µg/ml), pseudovirus neutralization: > 50 µg/mL
[12]
  IC50 (µg/ml), pseudovirus neutralization: 1.7 µg/mL
[13]
  IC50: 0.14 µg/mL
[14]
  IC50, pseudovirus neutralization: 3.79 µg/mL
[15]
  IC50 (µg/ml), pseudovirus neutralization: > 50 µg/mL
[16]
  IC50 (µg/ml), pseudovirus neutralization: 9.65 µg/mL

## 2G12 (antibody)
[1]
  IC50 (µg/ml), pseudovirus neutralization: 7.47 µg/mL
[2]
  IC50 (µg/ml), pseudovirus neutralization: > 50 µg/mL
[3]
  IC50 (µg/ml), pseudovirus neutralization: > 50 µg/mL
[4]
  IC50 (µg/ml), pseudovirus neutralization: > 50 µg/mL
[5]
  IC50 (µg/ml), pseudovirus neutralization: > 50 µg/mL
[6]
  IC50 (µg/ml), pseudovirus neutralization: 0.48 µg/mL
[7]
  IC50, pseudovirus neutralization: > 50 µg/mL
[8]
  IC50: > 50 µg/mL
[9]
  IC50 (µg/ml), pseudovirus neutralization: > 50 µg/mL
[10]
  IC50 (µg/ml), pseudovirus neutralization: 7.9 µg/mL
[11]
  IC50 (µg/ml), pseudovirus neutralization: > 50 µg/mL
[12]
  IC50 (µg/ml), pseudovirus neutralization: > 50 µg/mL
[13]
  IC50: > 50 µg/mL
[14]
  IC50, pseudovirus neutralization: > 50 µg/mL
[15]
  IC50 (µg/ml), pseudovirus neutralization: > 50 µg/mL
[16]
  IC50 (µg/ml), pseudovirus neutralization: > 50 µg/mL

## 4E10 (antibody)
[1]
  IC50 (µg/ml), pseudovirus neutralization: 12 µg/mL
[2]
  IC50 (µg/ml), pseudovirus neutralization: 1.02 µg/mL
[3]
  IC50 (µg/ml), pseudovirus neutralization: 4.87 µg/mL
[4]
  IC50 (µg/ml), pseudovirus neutralization: 2.49 µg/mL
[5]
  IC50 (µg/ml), pseudovirus neutralization: 0.04 µg/mL
[6]
  IC50 (µg/ml), pseudovirus neutralization: 4.54 µg/mL
[7]
  IC50, pseudovirus neutralization: 0.59 µg/mL
[8]
  IC50: 1.47 µg/mL
[9]
  IC50 (µg/ml), pseudovirus neutralization: 1.84 µg/mL
[10]
  IC50 (µg/ml), pseudovirus neutralization: 5.76 µg/mL
[11]
  IC50 (µg/ml), pseudovirus neutralization: 11.9 µg/mL
[12]
  IC50 (µg/ml), pseudovirus neutralization: 1.13 µg/mL
[13]
  IC50: 0.47 µg/mL
[14]
  IC50, pseudovirus neutralization: 9.7 µg/mL
[15]
  IC50 (µg/ml), pseudovirus neutralization: 12.2 µg/mL
[16]
  IC50 (µg/ml), pseudovirus neutralization: 13.7 µg/mL

## 1443_C16 (PG16) (TCN-116) (antibody)
[1]
  IC50 (µg/ml), pseudovirus neutralization: 0.01 µg/mL
[2]
  IC50 (µg/ml), pseudovirus neutralization: 11.3 µg/mL
[3]
  IC50 (µg/ml), pseudovirus neutralization: 0.11 µg/mL
[4]
  IC50 (µg/ml), pseudovirus neutralization: 0.01 µg/mL
[5]
  IC50 (µg/ml), pseudovirus neutralization: 0.01 µg/mL
[6]
  IC50 (µg/ml), pseudovirus neutralization: 0.28 µg/mL
[7]
  IC50, pseudovirus neutralization: > 50 µg/mL
[8]
  IC50: > 50 µg/mL
[9]
  IC50 (µg/ml), pseudovirus neutralization: > 50 µg/mL
[10]
  IC50 (µg/ml), pseudovirus neutralization: 0.4 µg/mL
[11]
  IC50 (µg/ml), pseudovirus neutralization: 1.16 µg/mL
[12]
  IC50 (µg/ml), pseudovirus neutralization: 0.35 µg/mL
[13]
  IC50: 0.02 µg/mL
[14]
  IC50, pseudovirus neutralization: 0.008 µg/mL
[15]
  IC50 (µg/ml), pseudovirus neutralization: 1.42 µg/mL
[16]
  IC50 (µg/ml), pseudovirus neutralization: 6.98 µg/mL

## 1495_C14 (PGC14) (antibody)
[1]
  IC50 (µg/ml), pseudovirus neutralization: > 50 µg/mL
[2]
  IC50 (µg/ml), pseudovirus neutralization: > 50 µg/mL
[3]
  IC50 (µg/ml), pseudovirus neutralization: > 50 µg/mL
[4]
  IC50 (µg/ml), pseudovirus neutralization: > 50 µg/mL
[5]
  IC50 (µg/ml), pseudovirus neutralization: > 50 µg/mL
[6]
  IC50 (µg/ml), pseudovirus neutralization: 46 µg/mL
[7]
  IC50, pseudovirus neutralization: > 50 µg/mL
[8]
  IC50: > 50 µg/mL
[9]
  IC50 (µg/ml), pseudovirus neutralization: > 50 µg/mL
[10]
  IC50 (µg/ml), pseudovirus neutralization: 21 µg/mL
[11]
  IC50 (µg/ml), pseudovirus neutralization: > 50 µg/mL
[12]
  IC50 (µg/ml), pseudovirus neutralization: > 50 µg/mL
[13]
  IC50: > 50 µg/mL
[14]
  IC50, pseudovirus neutralization: > 50 µg/mL
[15]
  IC50 (µg/ml), pseudovirus neutralization: > 50 µg/mL
[16]
  IC50 (µg/ml), pseudovirus neutralization: > 50 µg/mL

## 5329_C19 (PGT-136) (antibody)
[17]
  IC50 (µg/mL), pseudovirus neutralization: > 50 µg/mL
[18]
  IC50 neutralization: > 50 µg/mL
[19]
  IC50 (µg/mL), pseudovirus neutralization: > 50 µg/mL
[20]
  IC50 neutralization: > 10 µg/mL
[21]
  IC50 neutralization: > 50 µg/mL
[22]
  IC50 neutralization: > 10 µg/mL
[23]
  IC50: > 50 µg/mL
[24]
  IC50, pseudovirus neutralization: 0.0915 µg/mL
[25]
  IC50 (µg/mL), pseudovirus neutralization: > 50 µg/mL
[26]
  IC50 (µg/mL), pseudovirus neutralization: > 50 µg/mL
[27]
  IC50 (µg/mL), pseudovirus neutralization: > 50 µg/mL
[28]
  IC50: > 50 µg/mL
[29]
  IC50 (µg/mL), pseudovirus neutralization: > 50 µg/mL
[30]
  IC50 (µg/mL), pseudovirus neutralization: > 50 µg/mL
[31]
  IC50, pseudovirus neutralization: > 10 µg/mL
[32]
  IC50: > 50 µg/mL
[33]
  IC50: > 50 µg/mL
[34]
  IC50 (µg/mL), pseudovirus neutralization: > 50 µg/mL
[35]
  IC50 neutralization: 0.482 µg/mL
[36]
  IC50 neutralization: 0.034 µg/mL
[37]
  IC50 (µg/mL), pseudovirus neutralization: > 50 µg/mL
[38]
  Primary Neutralization Index (B cell culture supernatant): 6
[39]
  IC50 neutralization: > 50 µg/mL
[40]
  IC50: > 50 µg/mL

## 5343_B08 (PGT-135) (antibody)
[17]
  IC50 (µg/mL), pseudovirus neutralization: > 50 µg/mL
[18]
  IC50 neutralization: 0.131 µg/mL
[19]
  IC50 (µg/mL), pseudovirus neutralization: > 50 µg/mL
[20]
  IC50 neutralization: > 10 µg/mL
[21]
  IC50 neutralization: > 50 µg/mL
[22]
  IC50 neutralization: > 10 µg/mL
[23]
  IC50: > 50 µg/mL
[24]
  IC50, pseudovirus neutralization: 0.0139 µg/mL
[25]
  IC50 (µg/mL), pseudovirus neutralization: > 50 µg/mL
[26]
  IC50 (µg/mL), pseudovirus neutralization: > 50 µg/mL
[27]
  IC50 (µg/mL), pseudovirus neutralization: > 50 µg/mL
[28]
  IC50: > 50 µg/mL
[29]
  IC50 (µg/mL), pseudovirus neutralization: > 50 µg/mL
[30]
  IC50 (µg/mL), pseudovirus neutralization: 23.5 µg/mL
[31]
  IC50, pseudovirus neutralization: > 10 µg/mL
[32]
  IC50: > 50 µg/mL
[33]
  IC50: 3.67 µg/mL
[34]
  IC50 (µg/mL), pseudovirus neutralization: > 50 µg/mL
[35]
  IC50 neutralization: 0.023 µg/mL
[36]
  IC50 neutralization: 0.046 µg/mL
[37]
  IC50 (µg/mL), pseudovirus neutralization: > 50 µg/mL
[38]
  Primary Neutralization Index (B cell culture supernatant): 6.5
[39]
  IC50 neutralization: > 50 µg/mL
[40]
  IC50: > 50 µg/mL

## b12 (antibody)
[1]
  IC50 (µg/ml), pseudovirus neutralization: 4.34 µg/mL
[2]
  IC50 (µg/ml), pseudovirus neutralization: > 50 µg/mL
[3]
  IC50 (µg/ml), pseudovirus neutralization: > 50 µg/mL
[4]
  IC50 (µg/ml), pseudovirus neutralization: > 50 µg/mL
[5]
  IC50 (µg/ml), pseudovirus neutralization: > 50 µg/mL
[6]
  IC50 (µg/ml), pseudovirus neutralization: > 50 µg/mL
[7]
  IC50, pseudovirus neutralization: 4.25 µg/mL
[8]
  IC50: > 50 µg/mL
[9]
  IC50 (µg/ml), pseudovirus neutralization: > 50 µg/mL
[10]
  IC50 (µg/ml), pseudovirus neutralization: 0.15 µg/mL
[11]
  IC50 (µg/ml), pseudovirus neutralization: > 50 µg/mL
[12]
  IC50 (µg/ml), pseudovirus neutralization: 0.13 µg/mL
[13]
  IC50: 0.63 µg/mL
[14]
  IC50, pseudovirus neutralization: 3.54 µg/mL
[15]
  IC50 (µg/ml), pseudovirus neutralization: 0.07 µg/mL
[16]
  IC50 (µg/ml), pseudovirus neutralization: > 50 µg/mL
